Measured values as given in publication PMC10469194.

Target: REGN10987-based FabH3 heavy chain (VH - GS-G4 linker - IgG1 CH3 K392D, K409D)
Test: pull-down; co-purification from the soluble E. coli lysate by cobalt IMAC on the His6 tag of the heavy chain, native conditions; SDS-PAGE

REGN10987-based FabH3 heavy chain (VH - GS-G4 linker - IgG1 CH3 K392D, K409D), sequence (heavy, as listed by the source): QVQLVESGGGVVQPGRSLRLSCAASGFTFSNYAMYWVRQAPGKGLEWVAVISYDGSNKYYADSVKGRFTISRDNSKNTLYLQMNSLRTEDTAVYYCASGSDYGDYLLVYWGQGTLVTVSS

**Q.** “REGN10987-based FabH3 light chain (VL - GS-G4 linker - IgG1 CH3 E356K, D399K)” was tested. Which stoichiometry N did it give?
**A.** The stoichiometry N was 1.
